Consider 1 substance from article PMC7839251.

The assay deals with N-terminal fluorescein labeled ubiquitin E3 ligase WWP2 (FAM-WWP2). The assay is described as follows: MST.

For the substance “ubiquitin E2 conjugating enzyme UbcH5c (from UniProt P61077 1-147)”, the Kd (usually the free concentration of one partner at which half of the binding sites on the other are occupied at equilibrium, for simple one-to-one binding) is 9.6 µM.
